# Measured values: the domain aggregation screens of Martell et al. (2025)
# Assay: soluble fraction after stress (log2 fold change); higher = more stays soluble; pooled small domains, quantitative proteomics
# Conditions: stress: 50 degC
# In short: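 Pooled custom libraries of small protein domains were measured in a high-throughput format, with quantitative proteomics as the read-out. Each library was stressed at 50°C. Aggregation propensity is given as the base-two logarithm of the fold change in how much of each protein stays soluble after the stress. Higher values mean a larger share of the protein remains in solution.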
row,Sequence,soluble fraction (log2)
1,HMEKINLIIEEDNNLRLDKVIAMQLQELSRTQIQDMINQGLVLVNQKKEKASYKTKLNDEIEITILD,-1.37
2,HMDVDKQLDQLLAAMIPDKSLRQTIKTKAFNELVDNELADKDISSWTKQTMDVFMTRAEDMFGAM,-0.136
3,HMGEGTAVGKALKFLAAQGKKFAPELLDMAGSLTGVEALSKLGDAIKGDPELSELDKRILLAELETDAV,-0.0713
4,HMEDEEILNEIRHTEQYVYYFGNYIMEHHVSRGLSKEKVIASLARELQIEIADIREDFDGMIEQIKTNILN,-0.163
5,HMELNKNDLKIIKNISHIYPYFTPVKILQLILSKKFKTIDYNKILKSTSILTTDRSHLYYILNN,0.0788
6,HMTTIPAGRQQYILSLIRREGTVTVSRLAQELEVSELTIRRDLDQMAARNLVERTHGGATERR,-0.138
7,HMPGVTTQLHRLNGTEETYIIKRGDGVLEIDGEKSELQLGDAIIIPAGASQKISNIGDEDLE,-0.346
8,HMGISNEETFLLEKMSSGRRYSRKELDNLMGFEKTKTIRLLGSLINKGLVVAEGVNRARRYIR,-1.12
9,HMVSRVTTPGVVGKTWQETKQILKQADLTVGSLTRDGKDVTPADGDLVTAQNPSAGQAIVRGSSVDLTFDK,0.31
10,HMGGPEPIPAQIREGDTVYVTKFKQLGLVLKISEDTAEVQIGPLRATVAKTELSKVDATATEHR,0.158
11,HMHYELTPDAEKQLSALGLTAELVERILEEANDRRPIPGTNRTVYSLHGYSVEFSNTNHKIVSVRKG,-0.219
12,HMEDQFWQNRAEMALASARRAGRIVTYAEMADAADIPAPQRIHKLTLWLEATMRQDHASGQPLRAALV,0.0463
13,HMENMTLGQRIQALRKQHGLSQEGLGERLGVSRQAISRWEMDGAVPEVDKLIAMARLFGVSLNQLLGVE,-0.193
14,HMTTIAQMTGPQRAAVILLVLGEDHGRTIWQEFDDDEIRIITRAMAELGTVDADEVERLMLDFVGKLSS,-2.58
15,HMTVTLTTLRNGSTGAQVKTLQRLLSAMDYYNGETDGKFGISTAAAVKAFQRAKRLTVDGIVGKNTWTALL,-1.18
16,HMEDESSIERYLGSGAIKGIGPSLAARIVKKFGKDTFRIIEQEPERLAEIKGISERKAMEISTLMEEK,0.0193
17,HMSSGSLLTEREIEILAEMAKGLTNKAIGEKLFISVATVKTHILNIYRKLEVSSRVTAVNKAKQMRL,-1.93
18,HMTRYQHLAMLLEKRIAQGLYRNGERLPSVRSLSAEHGVSISTVQQAYYLLEQKQLIIPQSRSGYYVAPH,-4.42
19,HMKRTLLLEGRTIPYELTQKPVKNINIRVHADGSVRVSAGPWVSPEAVDAVLRQRSAFLLRALDQFAAQAP,-0.996

row,Sequence,soluble fraction (log2)
1,HMGTHSAEQVRAAIRAIVAAEDAANPLSDARITELLAMRGIAAARRTVMKYREQLGIPSSAKRRR,-0.343
2,HMGISQAQAMQALRKLIEEEDKHTPLSDQTLMERLKAAGIPLARRTIAKYRESLGIPSAAQRK,-0.109
3,HMSLSNMIGKNIQWTHVTKTKDAEGNPKTNSETFAGNVRGVKVLNGKPMVVAQDAKGKLHEVEVSEIEAIA,0.234
4,HMNPMLEPAGEIRLSDGVLLRWQSERLPGDDTVRGPGSLYELGLYRVKVRVSAPQQGVRESSVELAGWRQV,-0.0771
5,HMALSVRNRMSDLLRMLGDGEFHRFENLFSLEEGRHGIVVTFLAMLELAKEQLVEISQGESLAPIYLKSLA,-0.716
6,HMINNINKLPETQFIKLFANIFENSQFIAVALYKKKGDGFSDFKDLINKIMDIFENTTKEKKLKILNA,-0.0982
7,HMKSGLLNLSTRKQEKIKQALLSEFSNVSLLEAKVANIVTLAEISRGSFYTYFEDIYDAYQWLASI,-0.26
8,HMILKNVTSDLANKRLDKVASILFQTYSRTQIKKWILEGRVLVNGEISNPKDHVHENDEIEINPI,-1.04
9,HMNHTIEENDRVLILDPRGKKYLITVTNRVFHTNLGKLDISELIGKNYGDKIKSHMGKNFSILKPNLIDYI,-0.0858
10,HMPSDTNLIGKTGIAYTTLRPGGTALIDDRKVDVVADSEYIEKDKKIKVIRVEGIKVVVTAVK,0.091
11,HMKAFTKKELQDLVLNIFRASPTTNYNYKQLYKLIRGKDPEIKTLIIAVLLGLEKNGSILQMRPGKYKFS,0.593
12,HMKGERHNKILELIQQHAIDRQEDLLRYLKEAGFQVTQATVSRDIRELHLVKVAAGGGQYRYVSAAAAS,-0.0903
13,HMTKGVKVEIGTEEASVDLYVVMEYGTPIQKAAYDAQESVRKAIETMTNLHVVRVDVHVQGVSF,-0.134
14,HMDKSRPVLRVGDSGDWVSKLQTALLEFGYRVAVDGVFGEHTKSAVVHFQNGRRLIADGVVGNLTWDALL,-2.31
15,HMTTQERVSYSAFINDVETGRVAKVVISGYTIEGTRTNNSSFVTERPYGVDSNLSEVLMQNSVSIEGKA,-0.129
16,HMVNPDAPAPLYIVNGKETDKNIALAIKPEDVQDVRIIKNTVALQVYGEKGKNGVVIINTKPGV,0.206
17,HMGLTRRAQLEVADANLKRLYPGMHQSWVTAIAEYLHSSYWRYINSLEPEYAASIQRVYEQHIDAM,0.0529
18,HMKLPNSFGSIQKLSGNRRKPYRVVKTIGWDENGKQIRKTLGYYETRAKALQELALFNEKPYD,-0.804
